Laboratory results: publication doi:10.1101/2023.04.25.538284 (bioRxiv, 2023)

Target: T1, His-MBP-SIZ1-C (Arabidopsis thaliana, UniProt Q680Q4-3 435-873)
T1 sequence (looked up): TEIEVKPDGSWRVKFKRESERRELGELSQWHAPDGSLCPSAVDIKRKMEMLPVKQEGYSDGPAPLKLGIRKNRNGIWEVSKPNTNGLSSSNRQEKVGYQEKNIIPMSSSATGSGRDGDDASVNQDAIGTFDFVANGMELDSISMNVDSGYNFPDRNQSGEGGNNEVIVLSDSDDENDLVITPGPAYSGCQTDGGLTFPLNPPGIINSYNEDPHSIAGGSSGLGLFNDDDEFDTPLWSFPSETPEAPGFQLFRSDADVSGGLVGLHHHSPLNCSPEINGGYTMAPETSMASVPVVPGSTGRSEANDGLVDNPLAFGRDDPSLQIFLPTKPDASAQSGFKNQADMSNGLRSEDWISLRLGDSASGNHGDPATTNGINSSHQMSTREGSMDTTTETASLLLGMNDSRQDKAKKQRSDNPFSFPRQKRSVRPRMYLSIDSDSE
Assay: pull-down

B1: GST-SnRK2.4 (enzyme, Arabidopsis thaliana, UniProt P43291 1-363, looked up)
chain: MDKYELVKDIGAGNFGVARLMKVKNSKELVAMKYIERGPKIDENVAREIINHRSLRHPNIIRFKEVVLTPTHLAIAMEYAAGGELFERICSAGRFSEDEARYFFQQLISGVSYCHAMQICHRDLKLENTLLDGSPAPRLKICDFGYSKSSLLHSRPKSTVGTPAYIAPEVLSRREYDGKMADVWSCGVTLYVMLVGAYPFEDQEDPKNFRKTIQKIMAVQYKIPDYVHISQDCKNLLSRIFVANSLKRITIAEIKKHSWFLKNLPRELTETAQAAYFKKENPTFSLQTVEEIMKIVADAKTPPPVSRSIGGFGWGGNGDADGKEEDAEDVEEEEEEVEEEEDDEDEYDKTVKEVHASGEVRIS
B1: binds.

B2: GST-SnRK2.6 (enzyme, Arabidopsis thaliana, UniProt Q940H6 1-362, looked up)
chain: MDRPAVSGPMDLPIMHDSDRYELVKDIGSGNFGVARLMRDKQSNELVAVKYIERGEKIDENVKREIINHRSLRHPNIVRFKEVILTPTHLAIVMEYASGGELFERICNAGRFSEDEARFFFQQLISGVSYCHAMQVCHRDLKLENTLLDGSPAPRLKICDFGYSKSSVLHSQPKSTVGTPAYIAPEVLLKKEYDGKVADVWSCGVTLYVMLVGAYPFEDPEEPKNFRKTIHRILNVQYAIPDYVHISPECRHLISRIFVADPAKRISIPEIRNHEWFLKNLPADLMNDNTMTTQFDESDQPGQSIEEIMQIIAEATVPPAGTQNLNHYLTGSLDIDDDMEEDLESDLDDLDIDSSGEIVYAM
B2: binds.
